Data on two molecules can be found in PMC6609762.

Assay [1] deals with SKC2 (2b_(ALAB)‐2aG88‐2b_(ALAB))‐Pm complex (group A Streptococcus (GAS) strain ALAB49 | group G Streptococcus (GGS) strain G88 | human).
For assay [2], the target named is SKC1 (2aG88‐2b_(ALAB)‐2aG88)‐Pm complex (group G Streptococcus (GGS) strain G88 | group A Streptococcus (GAS) strain ALAB49 | human).
Assay [3] has as its target SK2bALAB49‐Pm complex (streptokinase of group A Streptococcus ALAB49 with plasmin) (group A Streptococcus (GAS) strain ALAB49 | human).
In assay [4] the target is SK2aG88‐Pm complex (streptokinase of group G Streptococcus G88 with plasmin) (group G Streptococcus (GGS) strain G88 | human).
Assay [5] concerns the target SKC2 (2b_(ALAB)‐2aG88‐2b_(ALAB))‐Pm complex (group A Streptococcus (GAS) strain ALAB49 | group G Streptococcus (GGS) strain G88 | human). The source holds these as a separate data set.
For assay [6], the target named is SKC1 (2aG88‐2b_(ALAB)‐2aG88)‐Pm complex (group G Streptococcus (GGS) strain G88 | group A Streptococcus (GAS) strain ALAB49 | human). The source holds these as a separate data set.
Assay [7] addresses SK2bALAB49‐Pm complex (streptokinase of group A Streptococcus ALAB49 with plasmin) (group A Streptococcus (GAS) strain ALAB49 | human). The source holds these as a separate data set.
Assay [8] addresses SK2aG88‐Pm complex (streptokinase of group G Streptococcus G88 with plasmin) (group G Streptococcus (GGS) strain G88 | human). This is another data set of the same source.

Take plasminogen (natural protein): the K m of the proteolytic activity (substrate affinity): 100 nM SK, Pg 0.3–5.0 µM as substrate, 0.1 mM S2251, absorbance at 405 nM stood at 3.45 µM in assay [1], 2.05 µM in assay [2], 7.92 µM in assay [3] and 0.77 µM in assay [4].

B1: alpha 2‐antiplasmin (natural protein)
chain: NQEQVSPLTLLKLGNQEPGGQTALKSPPGVCSRDPTPEQTHRLARAMMAFTADLFSLVAQTSTCPNLILSPLSVALALSHLALGAQNHTLQRLQQVLHAGSGPCLPHLLSRLCQDLGPGAFRLAARMYLQKGFPIKEDFLEQSEQLFGAKPVSLTGKQEDDLANINQWVKEATEGKIQEFLSGLPEDTVLLLLNAIHFQGFWRNKFDPSLTQRDSFHLDEQFTVPVEMMQARTYPLRWFLLEQPEIQVAHFPFKNNMSFVVLVPTHFEWNVSQVLANLSWDTLHPPLVWERPTKVRLPKLYLKHQMDLVATLSQLGLQELFQAPDLRGISEQSLVVSGVQHQSTLELSEVGVEAAAATSIAMSRMSLSSFSVNRPFLFFIFEDTTGLPLFVGSVRNPNPSAPRELKEQQDSPGNKDFLQSLKGFPRGDKLFGPDLKLVPPMEEDYPQFGSPK
Take B1: the retained activity (S‐2251 hydrolysis) of the SK‐Pm complex (20 nM) after 15 min with α2‐AP 100–400 nM, relative to no inhibitor; value at 400 nM in assay [5] was 80%; in assay [6], 50%; in assay [7], 50%; in assay [8], 80%.
